We go through 1 molecule from US20220356235A1 (STICHTING SANQUIN BLOEDVOORZIENING, published 2022).

Experiment [1] concerns the target T1, recombinant human FH fragment CCP 19-20 (human, UniProt P08603 1107-1231).
T1 construct: domain: CCP 19-20
T1 sequence (looked up): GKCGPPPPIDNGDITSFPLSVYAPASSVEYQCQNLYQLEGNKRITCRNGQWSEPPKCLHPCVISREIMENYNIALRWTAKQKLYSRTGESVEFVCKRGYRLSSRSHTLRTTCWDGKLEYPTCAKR
The experiment in a line: competition ELISA: mAb captured on RM-19 coated plate, FH-bt mixed with unlabelled CCP 19-20. The method, then: The location of the epitope of anti-FHR-1 mAbs was determined using recombinant human FH fragments composed of multiple CCP domains (15-18, 15-19, 18-20 or 19-20). In short, anti-FHR-1 mAbs were captured on a RM-19 coated microtiterplate to assure optimal binding conformation. Next, biotinylated FH, mixed with a 100-fold higher concentration of the indicated unlabeled recombinant FH-fragments, was incubated on the plate for 1 hour. Binding of biotinylated FH was determined by incubation with 0.01% (v/v) streptavidin conjugated with poly-HRP, in HPE for 30 min. The ELISA was further developed as described above. To determine whether the anti-FHR-1 mAbs competed with anti-FH.07 for the binding of FH, a similar set-up was used. In short, mAbs were directly coated to the plate and binding of biotinylated FH (FH-bt) in the absence or presence of a 10-fold higher concentration of indicated mAbs was assessed by ELISA as described above.

Experiment [2] deals with T2, human factor H, full length (human, UniProt P08603 19-1231).
T2 construct: mature; In the serum assays (C3b deposition, hemolysis) the FH is that of normal human serum; also called FH; full length FH
Kind of experiment: SPR (Biacore T200), mAb captured on ProtA or ProtG chip, full length FH flowed over, 1:1 model. As for the experimental part:
(§1) Surface plasmon resonance (SPR) experiments were performed using a BiaCore T200 (GE Healthcare) and CM5 sensor chips (GE Healthcare) in accordance with the manufacturer's instructions. In short, to determine its affinity, anti-FH.07, anti-FHR-1 3B4 or anti-FHR-1 8E4 were captured onto a ProtA or ProtG coupled chip and either full length FH or a fragment of FH comprising domain 18-20 was flown over the captured moAB at decreasing concentrations.
For orientation: Surface plasmon resonance follows binding to a sensor surface in real time, without labels.

Experiment [3] concerns the target T2, human factor H, full length. The experiment in a line: cell-based or functional assay.
Experiment [4] deals with T3, recombinant human FH fragment CCP 18-20 (human, UniProt P08603 1046-1231).
T3 construct: domain: CCP 18-20; also called fragment of FH comprised of domain 18-20
T3 sequence (looked up): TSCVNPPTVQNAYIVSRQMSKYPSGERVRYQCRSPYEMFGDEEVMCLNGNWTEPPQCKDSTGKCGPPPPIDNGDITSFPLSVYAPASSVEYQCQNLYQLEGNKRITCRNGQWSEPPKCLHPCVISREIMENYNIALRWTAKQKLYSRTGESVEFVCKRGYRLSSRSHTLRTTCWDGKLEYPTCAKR
Kind of experiment: SPR, mAb captured, FH CCP18-20 flowed over (fuller figure of the value rounded to 0.03 × 10^-9 in Table 2). The method, then:
as §1

For experiment [5], the target named is T3, recombinant human FH fragment CCP 18-20. The experiment in a line: SPR (Biacore T200), mAb captured on ProtA or ProtG chip, FH CCP18-20 flowed over, 1:1 model. As for the experimental part:
as §1

B1: anti-FHR-1.8E4 (antibody, V domains shown)
VH: QVQLKQSGPGLVQPSQSLSITCTVSDFSLTNSGVHWVRQSPGKGLEWLGVIWSGGTTEYNAAFMSRLTITKDNSKSQVFFKMNSLLVDDTGIYYCARNFGNYAVDYWGQGTSVTVSS
VL: QIVLSQSPAILSASPGEKVTMTCRASSSVRYMHWYQQKAGSSPTAWIFATSNLASGVPPRFSGSGSGTSYSLTISRVEAEDAATYYCQQWGTKPPTFGAGTKLELK
notes: Mouse monoclonal from a hybridoma, raised against recombinant human FHR-1; also called aFHR-1 8E4
Take B1: the binding result in experiment [1] was “no binding”. Moreover, in experiment [2], the dissociation constant Kd – broadly, a measure of binding affinity in units of concentration – is 10.4 nM; the koff (in general, the first-order rate constant of dissociation) was 9.39e-05 s⁻¹; the kon (commonly the rate constant with which the complex forms) came to 9000 M⁻¹ s⁻¹. In addition, in experiment [3], the “IC50 (nM), Hemolytic assay” value amounted to 128 nM and the “IC50 (nM), LPS C3b dep. assay” value was determined as 26.3 nM. In experiment [4], the Kd came out at 0.0313 nM. Besides, in experiment [5], the dissociation constant (Kd) is 0.03 nM, the koff is 4.96e-05 s⁻¹ and the kon turned out to be 1.58e+06 M⁻¹ s⁻¹.
